Data reported in the supplement of paper PMC7125110.
± gives the standard error. This sample holds only a part of the variants without activity.

B1: glmS ribozyme (parent)
chain: AUAAAAGCGCCAGAACUACAGAAAUGUAGUUGACGAGGAGGAGGUUUAUCGAAUUUUCGGCGGAUGCCUCCAAA

Legend:
Conditions in all cases: with glucosamine-6-phosphate
[1] = variants of: B1; assay: self-cleavage kobs at 40 uM GlcN6P; higher = faster cleavage; RNA array
Procedure, shortened: (§1)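 Ribozyme variants carrying barcodes were transcribed in situ on sequenced MiSeq chips by E. coli RNA polymerase and tracked at 37 °C with a hybridised Cy3 probe. They were exposed to 40 μM to 10 mM glucosamine-6-phosphate in HEPES/KCl/Mg(OAc)2 buffer. kobs came from exponential decay fits of normalised per-tile medians, and kcat and KM from weighted Michaelis–Menten fits.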

[2] = variants of: B1; assay: self-cleavage kobs at 160 uM GlcN6P; higher = faster cleavage; RNA array
Procedure, shortened: as §1

[3] = variants of: B1; assay: self-cleavage kobs at 640 uM GlcN6P; higher = faster cleavage; RNA array
Procedure, shortened: as §1

[4] = variants of: B1; assay: self-cleavage kobs at 2500 uM GlcN6P; higher = faster cleavage; RNA array
Procedure, shortened: as §1

[5] = variants of: B1; assay: self-cleavage kobs at 10000 uM GlcN6P; higher = faster cleavage; RNA array
Procedure, shortened: as §1

Variant | self-cleavage kobs at 40 uM GlcN6P [1] [s⁻¹] | self-cleavage kobs at 160 uM GlcN6P [2] [s⁻¹] | self-cleavage kobs at 640 uM GlcN6P [3] [s⁻¹] | self-cleavage kobs at 2500 uM GlcN6P [4] [s⁻¹] | self-cleavage kobs at 10000 uM GlcN6P [5] [s⁻¹]
G40U G41C A48U | < 1e-05 |  |  |  | 
A39G C70U | 0.00118 ± 0.00015 | 0.0014 ± 0.0004 | 0.00828 ± 0.0017 | 0.0127 ± 0.0053 | 0.022 ± 0.0045
G41C C70G | 0.0028 ± 0.00025 | 0.00588 ± 0.00089 | 0.023 ± 0.0035 | 0.0672 ± 0.025 | 
G41A U45C C70U | 9.09e-05 ± 2e-05 |  |  | 0.00174 ± 0.00052 | 0.00358 ± 0.00079
G40U U45G C67U | < 1e-05 | < 1e-05 |  |  | 5.49e-05 ± 1.2e-05
A39C U54C A64C | < 1e-05 |  |  |  | 
G38U G40C | < 1e-05 |  | < 1e-05 | < 1e-05 | < 1e-05
A39G C71G | 0.000215 ± 2.7e-05 | 0.000373 ± 6.9e-05 | 0.000657 ± 8.3e-05 | 0.00189 ± 0.00037 | 0.00538 ± 0.0012
G41C A53C C61A | < 1e-05 |  |  |  | < 1e-05
G38U G40C G60A | < 1e-05 |  |  |  | 
A39C A42C C68G | < 1e-05 |  |  |  | 
A39U G40C G43U | < 1e-05 |  |  |  | < 1e-05
G38U G41A U69G | < 1e-05 | < 1e-05 | < 1e-05 | < 1e-05 | 
G41C A48C | < 1e-05 |  | < 1e-05 | < 1e-05 | < 1e-05
A39C G41U | < 1e-05 | < 1e-05 |  |  | 
G41A G62U | < 1e-05 | < 1e-05 | < 1e-05 |  | < 1e-05
G38U U46C | < 1e-05 |  |  | < 1e-05 | 
A39U C61A | < 1e-05 | < 1e-05 | < 1e-05 | < 1e-05 | < 1e-05
A39G G51U | < 1e-05 | < 1e-05 | < 1e-05 | < 1e-05 | < 1e-05
G40C G59U C68A C71A | < 1e-05 |  |  |  | 
G40A G51A | < 1e-05 | < 1e-05 | < 1e-05 | < 1e-05 | < 1e-05
A39C G44C U65C | < 1e-05 |  |  |  | 

Variant | self-cleavage kobs at 40 uM GlcN6P [1] [s⁻¹] | self-cleavage kobs at 160 uM GlcN6P [2] [s⁻¹] | self-cleavage kobs at 640 uM GlcN6P [3] [s⁻¹] | self-cleavage kobs at 2500 uM GlcN6P [4] [s⁻¹] | self-cleavage kobs at 10000 uM GlcN6P [5] [s⁻¹]
A39U G60U | < 1e-05 | < 1e-05 | < 1e-05 |  | < 1e-05
A39U G60C | < 1e-05 | < 1e-05 |  | < 1e-05 | < 1e-05
G41A U46C | < 1e-05 |  |  |  | 4.37e-05 ± 1.2e-05
G41A U49C C67U | < 1e-05 |  |  |  | 
G41A C50G C61U | < 1e-05 | < 1e-05 | < 1e-05 | < 1e-05 | < 1e-05
G40C G51U | < 1e-05 | < 1e-05 | < 1e-05 | < 1e-05 | < 1e-05
G40U C71A | 0.000671 ± 6.2e-05 | 0.00189 ± 0.00028 | 0.00561 ± 0.00069 | 0.00906 ± 0.0019 | 0.0484 ± 0.0079
G40U G44A U57C C61G G66U | < 1e-05 |  |  | < 1e-05 | 
A39U U54A | 0.000568 ± 6.6e-05 |  | 0.00339 ± 0.00076 |  | 
G40U G59C | < 1e-05 |  | < 1e-05 |  | 
A39G U56C C71U | 7.63e-05 ± 2.3e-05 |  |  |  | 
G40C | 0.000161 ± 2.8e-06 | 0.000388 ± 1.8e-05 | 0.00123 ± 3.8e-05 | 0.00453 ± 0.0002 | 
G40U | 0.000216 ± 1.5e-05 | 0.00045 ± 1.9e-05 | 0.00199 ± 0.0002 | 0.00539 ± 0.00024 | 
G41C C50A G63U C67A | < 1e-05 |  |  |  | < 1e-05
G41C C58G | < 1e-05 | < 1e-05 | < 1e-05 |  | < 1e-05
A39G U49C A52G G63U C68G | < 1e-05 |  |  |  | 
A39U U55C | 0.000475 ± 4.6e-05 | 0.00102 ± 0.00013 | 0.00443 ± 0.00071 | 0.00902 ± 0.002 | 0.0244 ± 0.0038
G38U U45C | < 1e-05 | < 1e-05 | < 1e-05 | < 1e-05 | < 1e-05
G41A C61U C68A C70G C71A | < 1e-05 |  |  |  | 
G38C G43C | < 1e-05 |  |  |  | 
G41A G59C C68A | < 1e-05 |  |  | < 1e-05 | < 1e-05
G40U G41U U47G G62U G63U | < 1e-05 |  |  |  | < 1e-05
